Assay results from patent publication US20260125428A1, “SYNTHETIC TRIPLEX PEPTIDE NUCLEIC ACID-BASED INHIBITORS FOR CANCER THERAPY” (University of Connecticut, priority 2022, published 2026).

Experiments:
[1] = system: HeLa cells; experiment: Cellular uptake in HeLa cells (confocal microscopy); type: cell-based; details: 24 h, live cells
Experimental: (§1) FIGS. 3A-C show cellular uptake of indicated PNAs. (3A) A confocal image of HeLa cells showing cellular and nuclear uptake of γPNA7-NLS containing TAMRA at 2 μM dose and after 24 h of treatment. (3B) A confocal image of U2932 cells showing cellular and nuclear uptake of γPNA7-NLS containing tetramethylrhodamine (TAMRA) at 2 μM dose and after 24 h of treatment. (3C) A histogram representing flow cytometry results for cellular uptake of γPNA7-NLS in U2932 cells after incubation at different doses for 24 h. The scale bar represents 10 μm.
(§2) Cellular uptake: HeLa and U2932 cells were purchased from ATCC (USA), cultured in EMEM and RPMI media, respectively (Invitrogen, USA), supplemented with […] and 1% Penstrep at 37° C. and 5% CO2.
(§3) Confocal Microscopy: HeLa cells were seeded in 8 chamber slides at 50,000 cells/well. U2932 cells were seeded in 24 well plate at 100,000 cells per well. γPNA7-NLS containing TAMRA was added to the cells at 2 μM concentration. After 24 h, cells were washed with PBS to remove uninternalized PNA. The nucleus of live cells was stained using Hoechst dye and were visualized under confocal microscope (Nikon AIR, USA) while cells are maintained in CO2 independent media. […] Cells were then suspended in PBS and analyzed using LSR Fortessa X-20 cell analyzer (BD Biosciences, USA). The data was analyzed using Flowjo software.

[2] = system: U2932 cells; experiment: Cellular uptake in U2932 cells (confocal microscopy, flow cytometry); type: cell-based; details: 24 h
Experimental: as §1, §2, §3

[3] = Biodistribution in U2932 xenograft mice (IVIS, confocal); type: in vivo
Experimental: FIGS. 5A-D show results of in vivo administration of indicated PNAs. (5A) IVIS® images of xenograft mice bearing tumors at indicated time points after systemic administration of PNA-TAMRA and γPNA7-NLS at 5 mg/kg. (5B) IVIS® imaging of organs harvested from xenograft mice treated with PNA-TAMRA and γPNA7-NLS after 6 h of systemic administration. (5C) Quantification of fluorescence from the organs harvested from PNA-TAMRA and γPNA7-NLS treated xenograft mice. (5D) Confocal microscopy images of tumor and kidney tissue cryo-sections from PNA-TAMRA and γPNA7-NLS treated U2932 xenograft mice. Scale bar, 30 μm.
FIGS. 6A-C show effect of systemic administration of indicated PNAs. (6A) IVIS® images of xenograft mice bearing tumors at indicated time points after systemic administration of γPNA7-NLS and γPNA6 at 5 mg/kg. (6B) IVIS® imaging of organs harvested from control, γPNA7-NLS, and γPNA6 treated mice after 24 hours of systemic administration. (6C) Confocal imaging of tumor, liver, and kidney sections obtained from xenograft mice after 24 h of treatment with γPNA7-NLS and γPNA6. Scale bar is 30 μm.
In vivo studies in xenograft mice model: U2932 derived xenografts were generated by implanting 10 million cells subcutaneously on the lower right flank of the female NSG mice (NOD.Cg-Prkdc^scidIl2rg^tm1Wj1/SzJ, #005557, Jackson Laboratories, USA) of 5-6 weeks. The mice were maintained in the animal care facility at the University of Connecticut following the required Institutional Animal Care and Use Committee guidelines (IACUC). Mice developed palpable tumors after 3-4 weeks of implantation. Tumor dimensions including length (l), breadth (b), and height (h) were measured using a caliper and volume was calculated using the formula for ellipsoid (0.5236×lbh).
Biodistribution studies: Mice with 600-800 mm^3 tumor volume were used for the biodistribution studies. γPNA7-NLS, γPNA6 and regular PNA-TAMRA (23 mer with 3 arginine residues) was injected systemically (retro-orbital) at 5 mg/kg dose. Live imaging of animals was performed using in vivo imaging (IVIS®) spectrum CT and epifluorescence was recorded at excitation/emission wavelength of 549/578 nm at 0, 0.25, 1, 2, 4, 6, 8 and 24 h. Mice were euthanized after 6 h and 24 h. Organs were collected and imaged via IVIS® to determine organ localization of PNA. Further organs were frozen in optimum cutting temperature media (OCT) at −80° C. The tumor, liver, and kidney from treated and untreated mice were sectioned using a cryostat to obtain 10 μm tissue sections. The sections were washed in PBS followed by fixation in 10% neutral buffered formalin. After washing with PBS, sections were permeabilized using 0.2% Triton™-X. The nucleus was stained using mounting media with DAPI (Invitrogen, USA). Sections were allowed to harden overnight, and images were taken using 60× oil lens on a Nikon AIR confocal microscope.

[4] = Biodistribution in transgenic Ep-myc mice (IVIS, confocal); type: in vivo; details: 24 hours
Experimental: FIGS. 8A-D show organ distribution after intravenous and subcutaneous administration of indicated PNAs. (8A) The organ distribution of γPNA-NLS TAMRA after intravenous (IV) and subcutaneous (SC) administration in transgenic mice model of B-cell lymphoma (Ep-myc). γPNA-NLS TAMRA was administered at 5 mg/kg via IV and SC route and organ distribution was determined via IVIS imaging after 24 h. (8B) Confocal microscopy images of different lymph nodes (LNs) after IV and SC injection of γPNA-NLS TAMRA. Blue indicates DAPI and red indicated TAMRA. Scale bar, 30 μm. (8C) C-myc protein levels in brachial lymph nodes of γPNA5-NLS treated mice in comparison to the control (untreated mice). N=4 mice per group. (8D) C-myc protein levels in axillary lymph nodes of γPNA5-NLS treated mice in comparison to the control (untreated mice). N=4 mice per group. Transgenic or Ep-myc mice were treated with γPNA5-NLS at 60 mg/kg dose over 2 days and mice were euthanized on day 3 for analysis.
In vivo studies in transgenic mice model: Ep-myc mice model of Burkitt lymphoma (B6.Cg-Tg(IgHMyc)22Bri/J, #002728, Jackson laboratories) which overexpresses c-myc was also used to test the efficacy of the designed PNA-NLS.
Biodistribution study: γPNA7-NLS containing TAMRA was administered via retro-orbital and subcutaneous route at 5 mg/kg dose in mice with visibly enlarged lymph nodes (cervical, brachial, axillary, and inguinal). Mice were euthanized after 24 h and organs were collected followed by imaging via IVIS®. All major organs and enlarged lymph nodes were collected and frozen in OCT media. The lymph nodes and organs were sectioned at 10 μm thickness using cryostat. The sections were then fixed, permeabilized and nucleus was stained with DAPI. The localization of PNA in lymph nodes was studied via confocal microscopy. Images were taken using 60× oil lens on a AIR confocal microscope.

[5] = organs harvested after 6 h, 5 mg/kg
[6] = xenograft mice, 5 mg/kg systemic, imaged up to 24 h

Question: Which “cellular uptake, cytoplasm (confocal)” value [1] does the source give for “X3TCCCTCCCTCCGTTCTTTTTTCCCX7 (gamma PNA; NLS peptide; C-terminal TAMRA; gammaPNA to target; misc_feature 1 JJJTJJJT-linker- is covalently linked to the backbone, wherein J is pseudoisocytosine and the linker is 11-Amino-3,6,9-Trioxaundecanoic Acid (DCHA), represented as -OOO-; misc_feature 24 -K-linker-SEQ ID NO: 5-linker-label is covalently linked to the backbone, wherein the linker is 11-Amino-3,6,9-Trioxaundecanoic Acid (DCHA), represented as -OOO-, and the label i) [γPNA7-NLS]” here?
Answer: significant accumulation of γPNA7-NLS in the cytoplasm

Question: What about the “nuclear uptake (confocal, TAMRA overlap with Hoechst)” value [1] of the same substance?
Answer: accumulation of γPNA7-NLS within the nucleus

Question: What about the “cellular and nuclear uptake (confocal)” value [2] of the same substance?
Answer: accumulation of γPNA7-NLS in both the nucleus and cytoplasm

Question: And the “cellular uptake by flow cytometry” value ([2]; different doses)?
Answer: dose dependent increase in cellular uptake

Question: And the “accumulation in tumor (confocal microscopy of cryo-sections)” value ([3]; 6 h, 5 mg/kg)?
Answer: superior accumulation

Question: What about the “TAMRA intensity from harvested tumors (IVIS)” value ([3]; 6 h after systemic administration, 5 mg/kg) of the same substance?
Answer: significant TAMRA intensity

Question: And the “accumulation in tumors in comparison to γPNA6 (confocal imaging)” value ([3]; 24 h, 5 mg/kg)?
Answer: significantly higher accumulation in tumors

Question: And the “fluorescence signal of harvested tumors in comparison to γPNA6 (IVIS)” value ([3]; 24 h after systemic administration, 5 mg/kg)?
Answer: higher fluorescence signal

Question: What about the “accumulation in tumor in comparison to liver, kidney, and intestine” value [3, 5] of the same substance?
Answer: higher in comparison to the other organs

Question: What about the “accumulation in tumors in comparison to PNA-TAMRA (quantified fluorescence)” value [3, 5] of the same substance?
Answer: more than 6 fold

Question: What about the “tumor accumulation until (live IVIS imaging)” value ([3]; xenograft mice, 5 mg/kg retro-orbital, imaged up to 6 h) of the same substance?
Answer: 6 h

Question: And the “retained within the tumors until (live IVIS imaging)” value [3, 6]?
Answer: 24 h

Question: And the “significant accumulation in tumors starting from (live IVIS imaging)” value [3, 6]?
Answer: 0.25 h

Question: And the “accumulation in lymph nodes after IV administration (confocal)” value ([4]; 5 mg/kg IV)?
Answer: minimal accumulation in the lymph nodes

Question: And the “accumulation in lymph nodes after SC administration (confocal)” value ([4]; 5 mg/kg SC)?
Answer: accumulated significantly in multiple lymph nodes

Question: And the “accumulation in lymph nodes, SC route in comparison to IV route (IVIS)” value ([4]; 5 mg/kg)?
Answer: significantly higher accumulation
